Laboratory results reported in publication doi:10.1101/2020.12.01.405779.

How the values were obtained:
[1] = molecular target: FUL2 (wheat); experiment: two-hybrid
[2] = molecular target: FUL3 (wheat); experiment: two-hybrid

## VRT2 (Bridge protein of the yeast three-hybrid assay) (natural protein)
[1]
  percent reduction of the α-gal activity of the FUL2 - SEP1-2 interaction: 12%
  percent reduction of the α-gal activity of the FUL2 - SEP1-4 interaction: 20.6%
  percent reduction of the α-gal activity of the FUL2 - SEP1-6 interaction: 22%
[2]
  percent reduction of the α-gal activity of the FUL3 - SEP1-2 interaction: 93.8%
